The subject of one series is O=[N+]([O-])c1ccc(CO)cc1. Put plainly: purified protein, by the assay type. The conditions noted are these: other: cofactor NADH; enzyme 1 uM.
For series [1], the system named is O=C(O)c1ccccc1[N+](=O)[O-]. Put plainly: purified protein, by the assay type. The conditions noted are these: other: cofactor NADH; enzyme 1 uM.

With “Enterobacter cloacae nitroreductase (EntNFSB), wild type, SEQ ID NO: 37 (Enterobacter cloacae)”, in the series on O=[N+]([O-])c1ccc(CO)cc1, the Km stood at 9.52 mM mM and the kcat is given as 8.76 min-1 min-1.

For “Enterobacter cloacae nitroreductase (EntNFSB) variant EntNFSB-s1, S40A/T41I/F124A, SEQ ID NO: 38 (Enterobacter cloacae; F124A/S40A/T41I)”, in series [1], the Km was 4.05 mM.

The values are drawn from patent US20210277441A1, “METHOD OF SELECTING A POLYPEPTIDE OF INTEREST” (IMPERIAL COLLEGE INNOVATIONS LIMITED, priority 2018, published 2021).
